Test results taken from publication PMC8717942.

Tests used:
[1] = molecular target: K29-linked diubiquitin (UniProt P0CG48); test: crystal structure
[2] = molecular target: K29-linked diubiquitin (UniProt P0CG48); test: Western blot
[3] = molecular target: biotinylated K29-linked diUb (chemically synthesized) (UniProt P0CG48); test: ELISA
[4] = molecular target: His-tagged K29-linked diubiquitin (UniProt P0CG48); test: SPR

B1: sAB-K29 (Fab, V domains shown)
VH: EVQLVESGGGLVQPGGSLRLSCAASGFNVSYSSIHWVRQAPGKGLEWVASIYSYYGSTYYADSVKGRFTISADTSKNTAYLQMNSLRAEDTAVYYCARYGFAGQPETWYAMDYWGQGTLVTVSS
VL: DIQMTQSPSSLSASVGDRVTITCRASQSVSSAVAWYQQKPGKAPKLLIYSASSLYSGVPSRFSGSRSGTDFTLTISSLQPEDFATYYCQQAYVEPITFGQGTKVEIK
Q: Which stoichiometry N [1] does the source give for B1 here?
A: 1

Q: And the fold more sensitive than for the other diUbs tested [2]?
A: > 320 fold

Q: And the lowest amount detected [2]?
A: 0.78 ng

Q: And the EC50 [3]?
A: 1.46 nM

Q: What about the Kd [4] of the same binder?
A: 3.13 nM
